Test results reported in patent US20260103541A1 (UNIVERSIT T Z RICH, published 2026).

Assays:
[1] = biological target: T1, mouse FAP on cells (mouse, UniProt P97321 1-761); experiment: cell-based binding assay
T1 construct: also called murine FAP; mFAP
T1 sequence: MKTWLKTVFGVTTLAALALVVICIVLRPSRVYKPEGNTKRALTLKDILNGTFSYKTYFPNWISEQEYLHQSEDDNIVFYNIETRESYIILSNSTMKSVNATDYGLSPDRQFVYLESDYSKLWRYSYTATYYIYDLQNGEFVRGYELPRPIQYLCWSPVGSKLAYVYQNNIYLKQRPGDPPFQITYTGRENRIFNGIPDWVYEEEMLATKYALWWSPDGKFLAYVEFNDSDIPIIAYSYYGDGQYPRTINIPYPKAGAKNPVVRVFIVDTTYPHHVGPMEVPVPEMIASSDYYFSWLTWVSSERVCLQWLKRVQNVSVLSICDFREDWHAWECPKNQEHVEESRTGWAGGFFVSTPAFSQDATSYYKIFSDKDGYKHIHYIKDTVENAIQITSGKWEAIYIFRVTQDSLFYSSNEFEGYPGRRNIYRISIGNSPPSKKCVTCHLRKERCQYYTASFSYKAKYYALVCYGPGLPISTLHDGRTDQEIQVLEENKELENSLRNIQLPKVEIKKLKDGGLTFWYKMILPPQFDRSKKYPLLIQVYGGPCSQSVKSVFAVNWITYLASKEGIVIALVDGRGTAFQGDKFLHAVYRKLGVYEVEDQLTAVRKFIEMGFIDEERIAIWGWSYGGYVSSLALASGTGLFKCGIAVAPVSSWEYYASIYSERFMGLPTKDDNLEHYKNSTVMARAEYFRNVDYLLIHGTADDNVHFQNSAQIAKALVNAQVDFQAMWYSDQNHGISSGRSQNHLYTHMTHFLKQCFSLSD

[2] = biological target: T2, recombinant mouse FAP (R&D Systems) (mouse, UniProt P97321 26-761); experiment: ELISA, recombinant mouse FAP coated, 100 nM DARPin, anti-FLAG detection
T2 construct: also called Recombinant mFAP
T2 sequence: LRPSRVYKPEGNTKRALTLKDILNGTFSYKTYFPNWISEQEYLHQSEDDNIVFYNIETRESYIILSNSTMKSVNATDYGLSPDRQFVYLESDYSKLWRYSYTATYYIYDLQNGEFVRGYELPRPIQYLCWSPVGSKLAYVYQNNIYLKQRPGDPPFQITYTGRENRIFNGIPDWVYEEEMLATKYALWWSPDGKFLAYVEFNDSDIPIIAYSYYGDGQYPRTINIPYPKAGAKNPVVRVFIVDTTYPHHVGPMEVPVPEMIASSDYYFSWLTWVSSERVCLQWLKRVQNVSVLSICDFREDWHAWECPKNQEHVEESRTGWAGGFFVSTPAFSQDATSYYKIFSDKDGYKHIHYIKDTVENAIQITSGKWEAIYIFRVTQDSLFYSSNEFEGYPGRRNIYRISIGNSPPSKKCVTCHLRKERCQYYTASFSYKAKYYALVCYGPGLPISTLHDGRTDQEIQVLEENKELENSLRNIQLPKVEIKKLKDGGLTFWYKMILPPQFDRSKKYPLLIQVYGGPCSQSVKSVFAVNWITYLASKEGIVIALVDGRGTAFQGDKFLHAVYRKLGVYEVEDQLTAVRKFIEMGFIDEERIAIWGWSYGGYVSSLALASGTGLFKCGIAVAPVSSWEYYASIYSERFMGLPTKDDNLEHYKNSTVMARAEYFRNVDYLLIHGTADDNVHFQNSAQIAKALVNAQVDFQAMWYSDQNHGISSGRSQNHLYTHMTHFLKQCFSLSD
Procedure: Recombinant mFAP (R&D Systems), and recombinant maltose-binding protein (MBP; inhouse production) for a positive control, were used for a DARPin binding analysis via ELISA. Target protein was coated overnight (O/N) at 4° C. on MaxiSorp™ 96-well plates (Nunc). Blocking was performed for 2 h at RT using ELISA-blocking buffer (PBS containing 0.5% (w/v) BSA). Plates were washed with ELISA-PBS-T (PBS containing 0.05% (v/v) Tween 20). Samples were diluted (100 nM DARPin concentration) in ELISA-PBS-TB (ELISA PBS T containing 0.5% (w/v) BSA) and incubated for 1 h at 4° C. while shaking. DARPin detection was performed with rabbit anti-FLAG antibody (GenScript, A01868; 1:5,000) and goat anti-rabbit-AP antibody (Sigma Aldrich, A3687; 1:10,000), both diluted in ELISA-PBS-TB and incubated for 1 h at 4° C. while shaking. Substrate solution consisting of 3 mM p-nitrophenyl phosphate (pNPP) diluted in pNPP buffer (50 mM NaHCO₃, 50 mM MgCl₂) was used for final detection. A Tecan Infinite M1000 plate reader (Tecan) was used to measure the absorbance at 405 nm.

[3] = biological target: T3, human FAP (fibroblast activation protein) on HT1080hFAP cells (human, UniProt Q12884 1-760); experiment: flow cytometry cell-based binding assay, HT1080hFAP against FAP-negative HT1080 cells
T3 construct: also called seprase
T3 sequence: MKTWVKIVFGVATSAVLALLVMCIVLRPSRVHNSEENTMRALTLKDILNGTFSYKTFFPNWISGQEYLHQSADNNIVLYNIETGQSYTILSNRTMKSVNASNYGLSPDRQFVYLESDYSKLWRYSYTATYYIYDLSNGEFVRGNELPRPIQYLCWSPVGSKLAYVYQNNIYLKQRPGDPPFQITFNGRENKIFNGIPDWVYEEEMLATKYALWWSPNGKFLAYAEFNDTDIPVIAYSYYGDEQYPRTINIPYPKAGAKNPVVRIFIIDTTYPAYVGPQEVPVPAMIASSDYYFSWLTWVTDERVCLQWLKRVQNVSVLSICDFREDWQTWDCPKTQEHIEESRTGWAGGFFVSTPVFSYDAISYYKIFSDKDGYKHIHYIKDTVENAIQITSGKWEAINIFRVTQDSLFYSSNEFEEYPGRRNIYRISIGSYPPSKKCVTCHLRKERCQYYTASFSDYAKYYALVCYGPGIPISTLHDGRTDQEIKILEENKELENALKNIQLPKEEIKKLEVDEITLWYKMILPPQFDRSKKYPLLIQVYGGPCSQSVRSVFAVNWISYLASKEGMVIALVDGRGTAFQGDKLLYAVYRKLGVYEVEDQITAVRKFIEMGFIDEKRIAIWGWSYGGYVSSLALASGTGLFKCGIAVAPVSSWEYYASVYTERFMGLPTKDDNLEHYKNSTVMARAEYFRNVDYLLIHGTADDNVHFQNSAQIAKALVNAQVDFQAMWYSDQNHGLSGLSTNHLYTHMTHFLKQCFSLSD

Measured: binding result

B1: DARPin #6 (designed binder)
chain: DLGKKLLEAARAGQDDEVRILMANGADVNASDNWGRTPLHVAAQRGHLEIVDVLLAHGADDNASNRWGSTPLHVAAYTGHLEIVDVLLANGADVNASTANGETPLHAAAHAGHLEIVDVLLKHGADVNAQDKFGKTPFDLAIDNGNEDIAEVLQ
notes: also called designed ankyrin repeat domain #6; not shown: N terminal His6 tag; C terminal FLAG tag
binds: all assays above
